Experimental data: the DeepSol protein solubility set

Assay: soluble on expression in E. coli; label from the status in PepcDB or PDB records

Sequence | soluble on expression in E. coli
ADVYDIGRGAVMYVAGGKVSWAPRGGNEVKFEPVPKELKLVANRLHTSFPPHHVVDMSKFTFITPGSGVSMRVEYQYGCLPADTVPEGNCWWRLLDSLPPEVQYKEIRHANQFGYQTKHGVPGKYLQRRLQVNGLRAVTDTHGPIVIQYFSVKESWIRHLKLVEEPSLPGFEDLLRIRVEPNTSPLAGKDEKIFRFGSHKWYG | soluble
MPMVRVATNLPNEKVPVDFEIRLTDLLARSMGKPRERIAVEIAAGARLVHGATHDPVTVISIKSIGAVSAEDNIRNTAAITEFCGKELGLPKDKVVITFHDLPPATVGFNGTTVAEANKK | not soluble
GAQNEKNMYSYKKIGNKYIVSINNHTEIVKALNAFCKEKGILSGSINGIGAIGELTLRFFNPKTKAYDDKTFREQMEISNLTGNISSMNEQVYLHLHITVGRSDYSALAGHLLSAIQNGAGEFVVEDYSERISRTYNPDLGLNIYDFER | soluble
AHHHHHHGSIIELDEFTRVEGNGKAEIVIENGEVKDARVKIVEGPRFFEILTLGRDYWDVPDLEARICAICYIAHSVASVRAIEKALGIDVPESVEKLRELALWGEIIESHALHLYLLALPDVFGYPDAISMIPRHGELVKEGLTIKAFGNAIRELIGGREIHGINIKPGGFGRYPSEEELEKIAEHSKSLIKFARRIVGIFASQEAGGAVGEVLMATSDYLWGDELIINGERVQYYEVDEVPVGYSFAKHSYYKGNPVFVGALPRLLLKGESIEGEAARMLEEYRDKLESKYVIYNNLAQAIELLYALERVPQLVEEILSEGIERGNGEISQESGEGVGYVEAPRGVLVHHYRIENGKVVWSNTITPTAFNQRLMELSLLEEAKRLYGSESEENMKKRLEVIVRAFDPCISCSVHFVKL | soluble
EVQLQQSGAELVRPGTSVKLSCKASGYSFTNYWMNWLRQRPGQGLDWIGMIHPSDSETRLNQKFKDKATLTVDRSSSTAYIQLSSPTSEDSAVYYCARDDYDGAFWGQGTLVTVSAAKTTPPSVYPLAPGSAAQTNSMVTLGCLVKGYFPAPVTVTWNSGSLSSGVHTFPAVLQSDLYTLSSSVTVPSSTWPSETVTCNVAHPASSTKVDKKIVPRDC | soluble
LAIFLIDLPPSDMERRLGDALTVYVDAMRYPRGTETLRAPMWLEHIRRRGWQAVAAVEVTAAEQAEAADTTALPSAAELSNAPMLGVAYGYPGAPGQWWQQQVVLGLQRSGFPRLAIARLMTSYFELTELHILPRAQGRGLGEALARRLLAGRDEDNVLLSTPETNGEDNRAWRLYRRLGFTDIIRGYHFAGDPRAFAILGRTLPL | not soluble
MSEEKYNYLDMHLSRKGSIYDSLIHLKPDNENKFGLDENSDICRTLSNYADYSTKKVKYFVNKRFSEIENIEKNIEDIDYSAFKYFRTLPPKYSDENDIRNNIIFNNNNIYIYAENKNGTLNEQACISISPDNNIIYCSTKGRRYTIGGHAGIQKNLNNEYNFLDENNFISPQNSIKTYTYDALDSSDLSSSFPKMNLIKTNDVLDDTNTNRINTANIFNEHIIMNSCESSNLNTTKCLSKNLSVQKLFKYYKKCSQDLEHEQRICKPCAHVYNGSTCMNGDECSFCHHPDHVLISAKKWKKLVKNNMEKLNILLHILRNPDDVNANFLNEMIKQNTKNFKKNKKINNIKNNTIINMYNQNIRHSNSNNNTINDMNNNNINKRHNKNRIFYFPQRNTDNILRPPYNNYESNETTDMYKNNYQVRNCNFSPYHMNM | not soluble
MGSDKIHHHHHHMIDVEEILSKMNLNQKINYDRVMQKMVQVWEKNEQRPTILMHVCCAPCSTYTLEYLTKYADVTIYFANSNIHPKAEYHKRAYVTKKFVSDFNERTGNSVQYLEAPYEPNEYRKLVRGLEEEPEGGDRCQVCFDYRLDKTAQVAMDLGFDYFGSALTISPHKNSQTINSIGIDVQKIYTTHYLPSDFKKNQGYKRSVEMCEEYDIYRQCYCGCVYAAQAQNIDLVQVKKDATAFLLDKDVEKDYSHIKFTVTKLDI | not soluble
MGSDKIHHHHHHMLTTLAIGNYRSINHLVLPLSQLNLVTGANGSGKSNLYKALRLLAETAQGGVVEALAREGGLDSTWWAGPETSARMRRGEVPIQGQHPSEVRRLRLGFATEDLGFAITLGLPIPLPYPSAFMLDPEIKCEAIWGAGAYRPSSLLVERKNALVRAREGNRWAVLDQHADSGESFFNIVGRPRQAPEIGDLRAFINSWRFYDHFRIDRDAPCRQPQLGTRSPVLHHDGRNLASALQTIIEIGDVEDLEEALNDAFPGSRLEINAPPGGLFSVRLHQHGLLRPLEGAELSDGTLRYLLLMAALLTPRPPSLMVLNEPETSLHADLLPALARLIIRASRRSQVWVVSHSAPLINALAACDGCNVLELEKIQGQTQLRGVGLLDEPLWRWAD | not soluble
MNHYVYILECKDGSWYTGYTTDVDRRIKKHASGKGAKYTRGRGPFRLVATWAFPSKEEAMRWEYEVKHLSRRKKEQLVSLKGGPYENTTKLSTTMAGDPLEHHHHHH | soluble
MGSDKIHHHHHHMAATFGPRIARADENGQGSEHVALSWQKMDASGWRSGEASPAALHSDHHCRRGFAMSTRDADDRREYYRIEDTLALEFRPAGAVEDGLESEPGATLFSLLSDLHLMDYESQHLLRHISERDRTLANYLKVMNKRIDLLGQVMVQSLLKEIGEPRKVSLSEGGVSFRHDRALPVGQLLVLRMVLLPQGFGLELRARVIHAQPHDDEFEIGTEFEALSDAQRQLLARHILQKQAQQRRLARAGQGPLGEPGQPSST | not soluble
MVNTLEGLESTRNLILKENPMRRAAELVARLSADEVTMRAAKYELIKFNRAFQNFMLVLDENIEEILMSNDNSTRIQLKKLPEFPSFSDSFMQEYEKALLNGAEKLKASTSSEKGSIPSVSFSSSISSSSAELSDARCLICLDDVISTEKTIKCNSCRRRFHLDCASQWFKEKSVCPACNRGMLDPTEFPSL | not soluble
MDKFIKQLDPNLDYINHEINDGKCYITVASNRKEVTCPFCGQSSSRIHSTYNRIFQDLPIQGNKVFIIIRNRKMFCDNHDCSHTTFAERFDFISYKAKKTRRLEDEIVRLSINCSSVAASKALKENVVDIGKSTVCNLLKKETLVVDKKTVTVVCIDDFAIKKRKSYGTIMIDIFTHQILDMIDSRDYETVCEWLKTYPNLSVISRDGSVIYNNAIANAHPEALQISDRFHLLKNLTSYITEYLKKRLKPQVLIQAVSQETKEIKTIRQADENRKLTLKEKYEKIKQLLLEGKCKTEICRSLNMDIRAYDKLMAMTAEKREKSFQTKKMIIHEERVKQKMERVNEVRELKGIGLSNREISRRTGLNRKTVSRYLDENFNPVHAAYGKKRNGKLTPYIKAIDEYLEKGIMGSYIEEKIREMGYEGSSSTVRDYITDWKKRRKKYYDKSREDGTKTETIKRENILKLLYQPIEKSKNN | soluble
MGSDKIHHHHHHMIREVKFESQDRRIKQIIAALNENGIKDIEEANAICEAAGLDPYKTCEETQPICFENAKWAYVVGSAIALKKGCKNAAEAAEAIGIGLQAFCIPGSVADDRKVGIGHGNLAAMLLREETKCFAFLAGHESFAAAEGAIKIAAKADKVRKEPLRCILNGLGKDAAQIISRINGFTYVQTEFDYFTGELKVVREIAYSDGPRAKVKCYGADDVREGVAIMWKEGVDVSITGNSTNPTRFQHPVAGTYKKERVLAGKPYFSVASGGGTGRTLHPDNMAAGPASYGMTDTMGRMHSDAQFAGSSSVPAHVEMMGFLGIGNNPMVGCTVACAVDVATALSK | not soluble
MSLGNRMKVCIYGAGAIGGYLGVQLAQSGAADVSLVARGAHLQAMKENGLKLLIEGEERVIKPNATDKPAELGVQDVIIICLKAHSITGAIDSMKPLLGSHTRIVTAVNGVPYWYFHKHGGNEFEGRTLESIDPGGRQWKELGPERGIGCIVYPATELEAPGVIRHVYGDKFPIGEPSGETTSDVENLSKVFEASGLKAPILDRIRDEIWLKLWGNVCFNPISALTHATLDVIASDPATRALSKAMMLEAQQIAETFGVKFRVDVERRIEGARKVGAHKTSMLQDLERGRPMEIDPLVTVVQEMGRMTNIPTPAIDSVLGLVIQRAKVAGLYEGHHHHHH | soluble
MPFLPPLTPPTELYVGIQLPNPISILVNYLPVRQTPIETLRNLVYSCDINTLAIDEFMTWPSLLQPESTFRPYFELLVERGSLKVFAKRATS | not soluble
MNERHVLVVFPHPDDEAFGVSGTIAEHAQNGTPVTYACLTLGEMGRNMGVPPFANRETLPHIRKQELEEACRILGIHDLRLLGYRDKTVEFEDEEELADQIAAIVAETNPSLVITFYPGYSVHPDHDACGAAVIRALKRWPKEERPTVHCVAFAKNCEQDLGQPDVVRDVSSVIDTKLAAIRAHRSQTEGLMQAASKRGDALAWLKTERFWTYRWDD | soluble
MGSDKIHHHHHHMIIIIDEASAKLASFYYHDEIFKPQWKCAADMSSASDELHDEFQEKLQEKLPDELREKLYVVLPADESINDFQKTTIQESADNTAKANTGNLRIPKAPTDCIWIVSDRQQKQIADSLGIASVGEPQCGTRYAVESLAELDIEYLERVRRRYNHIPWDIGETDRCLIRELSLADLPALYELYDKPGMTDFVEPLYDYETELEYQKAYIENMYDFYEYGMWLVFSKETGKLIGRAGLEHNEMGYMIAPEFQNLGYATEVCRFIVDYARKNTDFEELYCRIDEKNVASVRLAKRLGFVRNGQIGNERNTGGLDRYVLSI | not soluble
MAHHHHHHMDYEEPGQATRELTTFVQGLLQNMQTRFQEMSDTIITRIDEMGTRIDDLEKNIAELMQQAGPDEEAAQTASAPKDKKKSKGK | soluble
MGSSHHHHHHSSGLVPRGSNLKIKLQKRRDEVNTCLCIGLDPDEADIKSFMQSEKQNGYQSVKKNLSNSGSSSSSSNSSSGKGELFAPQMGGQMLLAETPPKEAQEKDEFFYFFNHFCFYIINETKEYALAYKMNFAFYLPYGSLGVDVLKNVFDYLHHLNVPTILDIKMNDIGNTVKHYRKFIFDYLRSDSCTANIYMGTQMLRDICLDEECKRYYSTFVLVKTTNADSHIFQNRLSLDGKEAYVVIAEEVQKMAKQLHLEENGEFVGFVVGANCYDEIKKIRELFPDCYILAPGVGAQKGDLRKMLCNGYSKNYEKVLINVGRAITKSGSPQQAAREYHQQIKEVLAELQE | soluble
MEKKITLIPPPEFVQYVGGHFEEVGKEFMQYFIEIGNLKSNETVLDVGCGIGRMAVPLMNYLSDDGTYYGFDLFNKGITWCKNNISTRRNNFHFEHVDIYNQFYNPDGKEDASQYKFPYEDESFDFIFLTSVFTHLLPKELEHYVREIARVLKKDGRCFITFFLINPESSYYLNAGLSPLGFYHQIDNCYVLNKDIPNFAVAYPEEDIRTLLNKYGLEMQTPPHYGSWCGRTEHTSYQDIILAQKLEHHHHHH | not soluble
MSLATLKDVALHAGVSVTTVSNFINNKKKLKDDTRHNILEAIQATGYRHNALAASLKKSSASLRSIGIISIVDQNPFFSELFFKLENECFKQDFTVISCFRHKDKEDLHTYINLMSGRVDGIILISLKRDKIDNVIKHIHAVPVVAIAFDIGDVMSLCGGTEFNLHNETGGYIAGRFLLSKGHKKIACVTGPKALKTTVNRIAGLKKALADFNLPEDSVDFIEGNYTYQSGVDAMYQLFSSVALPTAIICHNDLMAIGVQNAANELGLKIPRELSVIGYDDIEMSKLSFPSLTTVRIPLDDIACQALEGLSMKMATPGSKAIISATPSLVVRGSVSKGIITITTDPNSSSVDKLAAALEHHHHHH | soluble
MTIKKYKTALSGMFPEEIQSFCGLKEKFRAQQIFHWIASGVNSFDEMTNLSFDMRSKLKNDFSLFSTKIKEALKDKDGTIKLAVELYDGSVIETVLLTDKAKRKTACVSCQAGCPMKCAFCKTGQIGFLRNLSASEIVEQFLHLEREAGSLDNIVFMGMGEPMLNLPEIDKAINILAHPKGRNLSKRRITISTSGLCKGIYEMADKGPEVRLAVSLTTADETLRSELMPITKTNSLDELKQAIKYFNSKSNKRVTLELALMKGLNTDKKAAQEVIEFAKGLECFINLIPWNPVEGLNFKTPSETEVRTFETYLKKAGLNISTRQKRGQSIGGACGQLGSTAARSNRF | not soluble
